Data set [1] deals with T1, PumHD wild-type (Pumilio homology domain) (Homo sapiens, UniProt Q14671 Q14671:828-1176). Nature of the data set: FP; 25 mM Tris-HCl pH 7.5, 0.5 mM EDTA, 50 mM KCl, 0.1 mg/mL BSA; active-fraction corrected. The note with it: tags: 6xHis (pBadHisB vector); label: 5'-FAM. As to the method: (§1) Methods Enzymol 469:287-302; Heyduk T, Ma Y, Tang H, Ebright R H (1996) Fluorescence anisotropy: rapid, quantitative assay for protein-DNA and protein-protein interaction. Methods Enzymol 274:492-503; Dinman J (2013) Biophysical approaches to translational control of gene expression. 317].
T1 sequence (Q14671 828-1176, one chain of several): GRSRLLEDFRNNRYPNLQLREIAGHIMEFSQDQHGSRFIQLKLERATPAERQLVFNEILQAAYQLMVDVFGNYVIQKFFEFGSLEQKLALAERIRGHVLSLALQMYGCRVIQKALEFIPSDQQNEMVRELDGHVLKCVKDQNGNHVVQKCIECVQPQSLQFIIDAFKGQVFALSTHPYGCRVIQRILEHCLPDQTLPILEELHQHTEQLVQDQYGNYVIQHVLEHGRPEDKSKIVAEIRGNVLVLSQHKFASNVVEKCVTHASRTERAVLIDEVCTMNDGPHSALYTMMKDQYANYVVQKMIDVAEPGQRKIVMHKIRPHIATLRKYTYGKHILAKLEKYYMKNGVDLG
(§2) The cognate and non-cognate RNA targets for the purified Pum variant proteins were synthesized with 5′-labeled FAM, 6-carboxyfluorescein (IDT). […] 50 nM cognate RNA was mixed with increasing concentration of the protein (measured by NanoDrop, Thermo Scientific) in the binding buffer (25 mM Tris-HCl pH 7.5, 0.5 mM EDTA, 50 mM KCl, 0.1 mg/mL BSA). The 100 μL samples were assayed, in duplicates, for fluorescence anisotropy using a Cary Eclipse fluorimeter (Varian) with Manual Polarizer Accessory (Varian). […] Fluorescence anisotropy was calculated as a unitless ratio defined as R═(I₌−I_{⊥})/(I₌+2I_{⊥}), where I is the emission intensity parallel (I₌) or perpendicular (I_{⊥}) to the direction of polarization of the excitation source. […] The Kd of each protein to its cognate and non-cognate RNA was subsequently measured, using the protein concentration corrected to the active protein fraction, with constant concentration of RNA. The Kd was calculated from a non-linear fit in IgorPro 6.22 of the anisotropy vs. protein concentration plot to the equation [Qu X, Chaires J B (2000) Analysis of drug-DNA binding data.

Data set [2] deals with T1, PumHD wild-type (Pumilio homology …). The experiment in a line: FP; no detectable binding, fit did not converge. The note with it: tags: 6xHis (pBadHisB vector); label: 5'-FAM. As to the method: as §1, §2

As a reminder, the Kd is the concentration at which binding is half-saturated. Lower therefore signals tighter binding. Take CCAGAAUUGUAUAUAUUCG (ssRNA) [wild-type NRE cognate]: in data set [1], the affinity, expressed as Kd, was 0.088 nM.
Take ACAUAUAU (ssRNA) [wild-type noncognate]: the binding result in data set [2] is “no binding”.

For the origin of these results see patent US20220163515, “PUMILIO DOMAIN-BASED MODULAR PROTEIN ARCHITECTURE FOR RNA BINDING” (Massachusetts Institute of Technology, published 2022).
